{
  "source": "patent US8501695B2",
  "about": "“Tissue kallikrein for the treatment of diseases associated with amyloid protein” (DiaMedica, Inc., priority 2007, dated 2013)",
  "key": {"[1]": {"target": "T1, Amyloid beta1-42 (hAPβ42 peptide) (Homo sapiens, UniProt P05067)", "T1 construct": "Amyloid beta1-42 standard (from β-Amyloid1-42 ELISA, Human kit, Sigma BE0200); purchased Sigma BE0200", "T1 sequence (P05067 672-713 limits assumed)": "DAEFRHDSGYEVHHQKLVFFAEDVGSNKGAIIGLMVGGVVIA", "assay": "Direct cleavage of amyloid beta, β-Amyloid1-42 ELISA", "type": "biochemical", "method": "Amyloid beta1-42 standard (from β-Amyloid1-42 ELISA, Human kit, Sigma BE0200) was reconstituted into 1.0 μg/mL as per kit instructions. A stock solution of tissue kallikrein (SEQ ID: 1) and approximately 0.5 molar equivalents of Soybean Trypsin Inhibitor (Sigma, T6522) was prepared in PBS and serially diluted in triplicate with a fixed concentration of hAPβ42 peptide at 500 pg/mL. Solutions were incubated for 3 and 18 hours respectively after which time additional protease inhibitors were added (1/100 dilution of protease inhibitor cocktail solution, Sigma P8340). As per kit instructions, 50 μL of the above samples were added and the ELISA plate incubated overnight at 4° C. The remaining steps of the ELISA plate development were followed as per kit instructions and then read using a multiwell ELISA plate reader at 450 nm. Percent cleavage was determined by: 100−[(Ave KLK1−Ave Blank)/(Ave Control−Ave Blank)×100]=% Cleavage Results"}, "[2]": {"system": "amyloid fibrils (fAβ) from synthetic human amyloid protein Aβ1-42 or Aβ1-40", "sequence (P05067 672-711 limits assumed)": "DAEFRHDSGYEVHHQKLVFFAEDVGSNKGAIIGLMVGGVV", "assay": "In vitro amyloid protein cleavage assay, digestion of fibrils, mass spectroscopy", "type": "biochemical", "conditions": "37° C., 4 h to 5 days, mass spectra FIG. 1", "method": "Synthetic human amyloid protein Aβ1-42 or Aβ1-40 was dissolved in dimethyl sulfoxide (DMSO) (Sigma, St. Louis, Mo.) to a concentration of 5 mM, and is then diluted in MilliQ® water to a final concentration of […] immediately prior to use. To prepare amyloid fibrils (fAβ) 5 mM Aβ1-42 or Aβ1-40 in DMSO was diluted in 10 mM HCl to 100 μM (for Aβ1-42) or […] (for Aβ1-40), vortexed for 30 s, and was incubated at 37° C. for 5 days. KLK1 (Sigma) was used for digestion reactions in the following buffers: ECE, 0.1 M MES, 0.1 M NaCl (pH 6.0); IDE, 50 mM Tris, 1 M NaCl (pH 7.5); NEP, 0.1 M MES (pH 6.5); and MMP-9, 50 mM Tris-HCl (pH 7.5), 10 mM CaCl2, 150 mM NaCl, 0.05% Brij 35. It was incubated at 37° C. for 4 h to 5 days. After digestion, the reaction was analyzed by mass spectroscopy. The samples were added to 50 mM glycine (pH 9.2)/2 mM thioflavin T (ThT) (Sigma) at a final volume of up to 2 ml. […] However, in panel C, there is a clear peak at about 2423 M/Z (mass to charge ration), which is an indication of cleavage."}},
  "data": [
    {"molecule": "tissue kallikrein: serine protease that cleaves kininogen into kallidin; polypeptide SEQ ID NO:1 (Sus scrofa kallikrein 1), KLK1 from Sigma (protein, listed as Sus scrofa, 125I label in one form) MWSLVMRLALSLAGTGAAPPIQSRIIGGRECEKDSHPWQVAIYHYSSFQCGGVLVDPKWVLTAAHCKNDNYQVWLGRHNLFENEVTAQFFGVTADFPHPGFNLSLLKNHTKADGKDYSHDLMLLRLQSPAKITDAVKVLELPTQEPELGSTCQASGWGSIEPGPDDFEFPDEIQCVELTLLQNTFCADAHPDKVTESMLCAGYLPGGKDTCMGDSGGPLICNGMWQGITSWGHTPCGSANKPSIYTKLIFYLDWINDTITENP", "values": [
      {"measurement": "Percent Cleavage of Amyloid Beta", "setting": "[1]; KLK1 1 pg/mL, 3 hrs", "result": 0, "unit": "%"},
      {"measurement": "Percent Cleavage of Amyloid Beta", "setting": "[1]; KLK1 1 pg/mL, 18 hrs", "result": 0, "unit": "%"},
      {"measurement": "Percent Cleavage of Amyloid Beta", "setting": "[1]; KLK1 10 pg/mL, 3 hrs", "result": 0, "unit": "%"},
      {"measurement": "Percent Cleavage of Amyloid Beta", "setting": "[1]; KLK1 10 pg/mL, 18 hrs", "result": 15, "unit": "%"},
      {"measurement": "Percent Cleavage of Amyloid Beta", "setting": "[1]; KLK1 100 pg/mL, 3 hrs", "result": 0, "unit": "%"},
      {"measurement": "Percent Cleavage of Amyloid Beta", "setting": "[1]; KLK1 100 pg/mL, 18 hrs", "result": 19.5, "unit": "%"},
      {"measurement": "Percent Cleavage of Amyloid Beta", "setting": "[1]; KLK1 1 ng/mL, 3 hrs", "result": 19.6, "unit": "%"},
      {"measurement": "Percent Cleavage of Amyloid Beta", "setting": "[1]; KLK1 1 ng/mL, 18 hrs", "result": 50, "unit": "%"},
      {"measurement": "Percent Cleavage of Amyloid Beta", "setting": "[1]; KLK1 10 ng/mL, 3 hrs", "result": 36.6, "unit": "%"},
      {"measurement": "Percent Cleavage of Amyloid Beta", "setting": "[1]; KLK1 10 ng/mL, 18 hrs", "result": 88.4, "unit": "%"},
      {"measurement": "Percent Cleavage of Amyloid Beta", "setting": "[1]; KLK1 100 ng/mL, 3 hrs", "result": 71.7, "unit": "%"},
      {"measurement": "Percent Cleavage of Amyloid Beta", "setting": "[1]; KLK1 100 ng/mL, 18 hrs", "result": 99.8, "unit": "%"},
      {"measurement": "Percent Cleavage of Amyloid Beta", "setting": "[1]; KLK1 1 μg/mL, 3 hrs", "result": 92.1, "unit": "%"},
      {"measurement": "Percent Cleavage of Amyloid Beta", "setting": "[1]; KLK1 1 μg/mL, 18 hrs", "result": 100, "unit": "%"},
      {"measurement": "cleavage of amyloid fibrils", "setting": "[2]", "result": "cleaves amyloid fibrils"}
    ]}
  ]
}
